Measured values published in PMC4778124, “A continuous sirtuin activity assay without any coupling to enzymatic or chemical reactions” (Scientific Reports, 2016).
“And” between values parts separate entries of the source, which are not always exact repeats. Equal values may be shown once.

Columns and labels:
Type in all cases: biochemical, human
[1] = system: T1, CC(=O)N[C@@H](CCC(=O)O)C(=O)N[C@@H](C)C(=O)N[C@@H](CC(C)C)C(=O)N1CCC[C@H]1C(=O)N[C@@H](CCCCN)C(=O)N[C@@H](CCCCNC(=O)CCCCCCCCCCNC(=O)c1ccccc1N)C(=O)N[C@@H](Cc1ccc(O)c([N+](=O)[O-])c1)C(=O)NCC(=O)NCC(N)=O; experiment: Continuous fluorescence assay, substrate kinetics; conditions: other: Sirt6 500 nM; fluorescence spectrophotometer (footnote a); 37.0 °C
T1 construct: His-tag; made in house; host or cells: E. coli BL21 DE3
Description: The fluorescence measurements were performed on a Hitachi F-4500 fluorescence spectrophotometer (Tokyo, Japan) at λEx = 310 nm and λEm = 405 nm (slitEx = 5 nm, slitEm = 2.5 nm, PMT = 700 V for 3, 4 and 5 as well as slitEx = 10 nm, slitEm = 10 nm, PMT = 950 V for 4a). Each reaction mixture contained assay-buffer, 0.5 mM NAD^+ and various peptide concentrations (0.1–100 μM) and was preincubated for 5 minutes at 37 °C. The reaction was started by adding human sirtuin (0.1–0.5 μM) and observed for 5–10 minutes. Product formation could be monitored by increase of relative fluorescence. This signal was converted into product concentration via calibration lines. […] The reaction mixture was analyzed with HPLC, to control if the entire peptide substrate was turned to product. Additionally the mixture was diluted (0.1–25 μM) and measured with Hitachi F-4500 fluorescence spectrophotometer at the same conditions as described above.
The microtiter plate fluorescence measurements were performed on a Tecan Infinite M200 microplate reader (Maennedorf, Switzerland) at λEx = 320 nm and λEm = 408 nm (lag time 9 μs, integration time […], gain 160, 170 or 182). The reactions (total volume 100 μl) were measured in black low-binding 96-well microtiter plates (NUNC). […] The reaction mixture for the calibration lines was prepared as described for the single fluorescence measurements. […]

[2] = system: T2, CCCCCCCCCCCCCC(=O)NCCCC[C@H](NC(=O)[C@H](CCCCN)NC(=O)[C@@H]1CCCN1C(=O)[C@H](CC(C)C)NC(=O)[C@H](C)NC(=O)[C@H](CCC(=O)O)NC(C)=O)C(=O)N[C@@H](Cc1ccc(O)c([N+](=O)[O-])c1)C(=O)NCC(=O)NCC(N)=O; experiment: HPLC based activity assay; conditions: other: HPLC; Sirt6 0.5 µM; pH 7.8; 37.0 °C
T2 construct: His-tag; made in house; host or cells: E. coli BL21 DE3
Description: (§1) For the determination of kinetic constants for all sirtuin mediated reactions solutions containing 20 mM TRIS/HCl pH 7.8, 150 mM NaCl, 5 mM MgCl2 (assay-buffer), 500 μM NAD^+ and varying substrate concentrations (0.5–100 μM) were used. Deacylation was started by adding human sirtuin to reach a final concentration of 0.01–0.5 μM. Enzyme-catalyzed reaction was stopped using TFA (1% final concentration) after 1 min to 180 min of incubation at 37 °C depending on substrate reactivity. The cleavage rate of the different TNFα peptide derivatives was analyzed using analytical reversed phase HPLC. 40 to 80 μl of compounds or reaction solutions were injected and separated using a linear gradient from 5% to 95% solvent B within 6min. The product and substrate peaks were quantified using absorbance at 220 nm or 365 nm (absorption of 3-Nitrotyrosyl moiety). The peak areas were integrated and converted to initial velocity rates calculated from the ratio of product area to total peak area. Linear regression of conversions plotted against time yielded reaction rates in μM/min (relative conversion below 20% of substrate). Non-linear regression according to Michaelis-Menten of the reaction rates at different substrate concentrations yielded KM- and kcat-values using the program SigmaPlot 8 (Systat Software, San Jose, USA). All measurements were done in duplicates. […]

[3] = system: T3, CCCCCCCCCCCCCC(=O)NCCCC[C@H](NC(=O)[C@H](CCCCN)NC(=O)[C@@H]1CCCN1C(=O)[C@H](CC(C)C)NC(=O)[C@H](C)NC(=O)[C@H](CCC(=O)O)NC(C)=O)C(=O)N[C@H](C(=O)NCC(=O)NCC(N)=O)[C@@H](C)O; experiment: HPLC based activity assay; conditions: other: HPLC; Sirt6 0.5 µM; pH 7.8; 37.0 °C
T3 construct: His-tag; made in house; host or cells: E. coli BL21 DE3
Description: as §1

[4] = system: T1, CC(=O)N[C@@H](CCC(=O)O)C(=O)N[C@@H](C)C(=O)N[C@@H](CC(C)C)C(=O)N1CCC[C@H]1C(=O)N[C@@H](CCCCN)C(=O)N[C@@H](CCCCNC(=O)CCCCCCCCCCNC(=O)c1ccccc1N)C(=O)N[C@@H](Cc1ccc(O)c([N+](=O)[O-])c1)C(=O)NCC(=O)NCC(N)=O; experiment: HPLC based activity assay; conditions: other: HPLC; Sirt6 0.5 µM; pH 7.8; 37.0 °C
Description: as §1

Sirt6 (Homo sapiens)
Km [1]: 23.5 ± 4.9 µM | kcat/Km [1]: 39 M⁻¹ s⁻¹ | Km [2]: 17 µM and 17.3 ± 2.6 µM | kcat [2]: 4.9∙10^-3 ± 0.2∙10^-3 s^-1 | kcat/Km [2]: 2.81∙10^2 M^-1s^-1 | Km [3]: 6 µM and 5.7 ± 1.3 µM | kcat [3]: 4.7∙10^-3 ± 0.3∙10^-3 s^-1 | kcat/Km [3]: 8.25∙10^2 M^-1s^-1 | Km [4]: 18.3 ± 4.4 µM | kcat [4]: 8.3∙10^-4 ± 0.7∙10^-4 s^-1 | kcat/Km [4]: 45.00 M⁻¹ s⁻¹
